Source: article PMC6343799

Columns and labels:
SHR-1210-IgG1 (human) = test: SPR
[1] = molecular target: human PD1 expressed on CHO-K1 stable cell line (Homo sapiens) (UniProt Q15116); test: flow cytometry on cells
[2] = molecular target: cyno PD1 expressed on CHO-K1 stable cell line (Macaca fascicularis) (UniProt B0LAJ3); test: flow cytometry on cells

Kd (SHR-1210-IgG1 (human)) [nM]	EC50 [1] [nM]	EC50 [2] [nM]	Substance
4			His-tagged monomeric human PD1 ectodomain (from UniProt Q15116 25-170) (domain or fragment)
	2.32	6.53	SHR-1210-IgG1 (antibody)
32			His-tagged monomeric cynomolgus monkey PD1 ectodomain (domain or fragment)
